# Measurements from paper PMC5468090.
# Experiments:
# Assay in all cases: SPR
# [1] = test system: XRCC4-WT;XLF-Ala; details: 1 uM each; described as similar to WT-WT; EMSA: 10 mM HEPES pH 8, 75 mM KCl, 0.5 mM EDTA, 0.5 mM DTT, 5% glycerol, RT 30 min, 200 ng DNA/10 ul; SPR: 20 mM HEPES pH 8, 75 mM KCl, 10% glycerol, 1 mM DTT …
# [2] = test system: XRCC4-Asp;XLF-Asp; details: 1 uM each; koff_fast 4-fold faster than WT-WT; EMSA: 10 mM HEPES pH 8, 75 mM KCl, 0.5 mM EDTA, 0.5 mM DTT, 5% glycerol, RT 30 min, 200 ng DNA/10 ul; SPR: 20 mM HEPES pH 8, 75 mM KCl, 10% glycerol, 1 mM DTT …
# [3] = test system: XRCC4-WT;XLF-WT; details: 1 uM each; EMSA: 10 mM HEPES pH 8, 75 mM KCl, 0.5 mM EDTA, 0.5 mM DTT, 5% glycerol, RT 30 min, 200 ng DNA/10 ul; SPR: 20 mM HEPES pH 8, 75 mM KCl, 10% glycerol, 1 mM DTT …
# [4] = test system: XRCC4-Ala;XLF-WT; details: 1 uM each; described as similar to WT-WT; EMSA: 10 mM HEPES pH 8, 75 mM KCl, 0.5 mM EDTA, 0.5 mM DTT, 5% glycerol, RT 30 min, 200 ng DNA/10 ul; SPR: 20 mM HEPES pH 8, 75 mM KCl, 10% glycerol, 1 mM DTT …
# [5] = test system: XRCC4-Ala;XLF-Ala; details: 1 uM each; described as similar to WT-WT; EMSA: 10 mM HEPES pH 8, 75 mM KCl, 0.5 mM EDTA, 0.5 mM DTT, 5% glycerol, RT 30 min, 200 ng DNA/10 ul; SPR: 20 mM HEPES pH 8, 75 mM KCl, 10% glycerol, 1 mM DTT …
substance,measurement,setting,value
400 bp SPR DNA,binding signal (fold equilibrium affinity vs WT-WT),[1],1
same,binding signal (fold equilibrium affinity vs WT-WT),[2],0.25
same,binding signal (fold equilibrium affinity (reference)),[3],1
same,binding signal (fold equilibrium affinity vs WT-WT),[4],1
same,binding signal (fold equilibrium affinity vs WT-WT),[5],1
